1 substance from patent US11078246B2, “Peptides binding to Bfl-1” (Dana-Farber Cancer Institute, Inc., priority 2015, dated 2021) can be followed below.

Type in all cases: binding
The target in one test is T1, tBID/FLAG-MCL-1 (Homo sapiens, UniProt Q07820).
T1 construct: expressed in transfected cells; host or cells: 293T
The test is described as follows: Competition with tBID in 293T lysates (FLAG immunoprecipitation). As to conditions: 5 μM biotinylated peptide, non-covalent. The procedure: (§1) 293T cells were maintained in DMEM containing 10% FBS and penicillin/streptomycin, and transfections performed with 2 μg pCMV plasmid containing HA-BFL-1ΔC C4S/C19S using X-tremeGENE 9 (Roche). For lysate experiments, cells were trypsinized 24 hours post-transfection, washed with PBS, and lysed by incubation with 1% CHAPS lysis buffer (150 mM NaCl, 50 mM Tris pH 7.4, 100 mM DTT). Protein concentration of the soluble fraction was measured using a BCA kit according to manufacturer's instructions (Thermo Scientific). […] Samples were then boiled in LDS buffer and subjected to western analysis using 1:1000 dilutions of HA (Sigma-Aldrich. #12CA5) and biotin (Abcam, #53494) antibodies. To evaluate the capacity of biotinylated SAHBs to compete with tBID for interactions with BFL-1 and MCL-1, 293T cells were transfected with either HA-BFL-1ΔC C4S/C19S or FLAG-MCL-1 in the p3XFLAG-CMV-10 vector (Sigma) as above. After 24 h, cells were trypsinized, washed with PBS, lysed in 1% CHAPS buffer, and the supernatant collected for protein concentration determination by BCA kit. […] The mixtures were then subjected to HA or FLAG (Sigma-Aldrich, F7425) immunoprecipitation, followed by western analysis using 1:1000 dilutions of HA, FLAG, biotin, and BID (Santa Cruz sc-11423) antibodies. […] Cells were harvested and lysed as above, and incubated overnight with anti-HA agarose beads (Pierce). […]

Another test has as its target T2, tBID/HA-BFL-1ΔC C4S/C19S (Homo sapiens, UniProt Q16548, C19S/C4S).
T2 construct: cDNA encoding BFL-1ΔC (aa 1-153) was cloned into the pET19b expression vector; expressed in transfected cells; host or cells: 293T
T2 sequence (Q16548 1-153 C4S/C19S): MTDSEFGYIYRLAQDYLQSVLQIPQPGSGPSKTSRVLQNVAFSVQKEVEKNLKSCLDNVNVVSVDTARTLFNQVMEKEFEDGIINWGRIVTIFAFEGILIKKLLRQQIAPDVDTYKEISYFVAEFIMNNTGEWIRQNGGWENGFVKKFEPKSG
Put plainly: Competition with tBID in 293T lysates (HA immunoprecipitation). As to conditions: 5 μM biotinylated peptide, 0.25 μM tBID, 6 h. The method, then:
Protein concentration of the soluble fraction was measured using a BCA kit according to manufacturer's instructions (Thermo Scientific). […] After 24 h, cells were trypsinized, washed with PBS, lysed in 1% CHAPS buffer, and the supernatant collected for protein concentration determination by BCA kit. […] Cells were harvested and lysed as above, and incubated overnight with anti-HA agarose beads (Pierce). The beads were washed 3 times with lysis buffer, eluted by boiling in LDS buffer, and subjected to western analysis with HA and biotin antibodies. […] Biotin capture was accomplished by incubating the mixture with high-capacity SA agarose (Thermo Scientific) for 2 h at 4° C., followed by centrifugation and washing the pelleted beads with 3×1 mL lysis buffer.

For the next test, the target named is T3, MCL-1 (Homo sapiens, UniProt Q07820).
T3 construct: we incubated A375P lysates with the corresponding biotinylated BIM SAHBs; endogenous in cells; host or cells: A375P melanoma cell lysate
Put plainly: SA pull-down from A375P lysates, MCL-1 western. The conditions noted are these: A375P lysate, biotinylated peptides. The procedure:
as §1

T1 sequence (Q07820 whole entry): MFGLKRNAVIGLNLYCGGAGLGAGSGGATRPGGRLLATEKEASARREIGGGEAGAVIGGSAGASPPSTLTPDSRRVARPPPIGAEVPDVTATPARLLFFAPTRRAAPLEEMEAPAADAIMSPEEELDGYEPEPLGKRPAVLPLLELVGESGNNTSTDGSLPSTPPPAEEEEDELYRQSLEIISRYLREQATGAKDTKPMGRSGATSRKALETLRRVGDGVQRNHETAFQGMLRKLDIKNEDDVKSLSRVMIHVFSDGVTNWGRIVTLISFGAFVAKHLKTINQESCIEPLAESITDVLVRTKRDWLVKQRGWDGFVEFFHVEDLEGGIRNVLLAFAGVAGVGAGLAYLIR

Regarding “BIM SAHBA: stapled BIM BH3 peptide (aa 147-166) lacking the acrylamide-based warhead”, in the test with tBID/FLAG-MCL-1, the “competition with tBID for FLAG-MCL-1” value is given as “equally effective”. In the test with tBID/HA-BFL-1ΔC C4S/C19S, the “competition with tBID for HA-BFL-1 binding” value is listed as “incapable of competing with tBID”. The “binding to MCL-1” value with MCL-1 is on record as “equivalent binding”.
